Assay results reported in patent publication US20180134765A1 (AVIDBIOTICS, published 2018).
Positions count from the first letter of the chain named.

Assays:
human NKG2D-Fc = molecular target: T1, human NKG2D-Fc (human, UniProt P26718 78-216, limits assumed); assay: ELISA: protein captured on FGFR3 detected with NKG2D-Fc
T1 construct: also called natural NKG2D-Fc; not shown: Fc part
T1 sequence (looked up): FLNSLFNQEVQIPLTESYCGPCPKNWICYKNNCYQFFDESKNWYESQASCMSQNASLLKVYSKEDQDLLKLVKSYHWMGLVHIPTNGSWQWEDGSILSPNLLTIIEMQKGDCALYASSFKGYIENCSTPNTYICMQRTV

Y152A NKG2D-Fc = molecular target: T2, Y152A NKG2D-Fc (human, UniProt P26718 78-216); assay: phage ELISA: phage clone titrated against Y152A NKG2D
T2 construct: Biotinylated for the phage selections; also called non-natural Y152A NKG2D; not shown: Fc part; not described
T2 sequence (looked up): T1 sequence (looked up) with Y75A

FGFR3 (plate-coated) = molecular target: T3, FGFR3 (plate-coated) (UniProt P22607 23-375); assay: ELISA: FGFR3 coated at 2 ug/ml, protein titrated, bound protein detected with NKG2D-Fc and anti-Fc-HRP
T3 construct: also called Fibroblast Growth Factor Receptor 3
T3 sequence (looked up): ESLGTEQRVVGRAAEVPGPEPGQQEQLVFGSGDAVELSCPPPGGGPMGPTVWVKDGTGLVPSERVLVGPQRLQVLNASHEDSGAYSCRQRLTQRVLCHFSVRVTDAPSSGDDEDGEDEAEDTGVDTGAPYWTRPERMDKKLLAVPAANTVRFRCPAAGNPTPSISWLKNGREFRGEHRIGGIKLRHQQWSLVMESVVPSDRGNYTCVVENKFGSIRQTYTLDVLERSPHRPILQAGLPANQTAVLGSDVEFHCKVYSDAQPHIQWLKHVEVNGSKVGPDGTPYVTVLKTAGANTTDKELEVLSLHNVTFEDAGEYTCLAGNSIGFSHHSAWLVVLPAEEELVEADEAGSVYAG

[1] = molecular target: T4, biotinylated human NKG2D (Example 3) (human, UniProt P26718 78-216, limits assumed, biotinylated (site not stated)); assay: biolayer interferometry (Octet), Kd = kOFF/kON
T4 construct: also called recombinant biotinylated NKG2D; surface coated biotinylated human NKG2D
T4 sequence (looked up): T1 sequence (looked up)

[2] = molecular target: T4, biotinylated human NKG2D (Example 3); assay: biolayer interferometry (Octet), biotinylated human NKG2D on the surface, 100 nM analyte
NKG2D on NKL cells = molecular target: T5, NKG2D on NKL cells (human, UniProt P26718 1-216); assay: cell-based or functional assay
T5 sequence (looked up): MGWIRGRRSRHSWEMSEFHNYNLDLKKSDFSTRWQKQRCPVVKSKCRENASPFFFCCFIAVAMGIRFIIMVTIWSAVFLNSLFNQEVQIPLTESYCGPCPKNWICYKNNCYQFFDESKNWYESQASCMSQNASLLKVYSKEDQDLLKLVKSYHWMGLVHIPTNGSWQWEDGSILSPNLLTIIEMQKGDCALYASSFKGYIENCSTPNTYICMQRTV

murine NKG2D-Fc = molecular target: T6, murine NKG2D-Fc (mouse, UniProt O54709 94-232, limits assumed); assay: competition ELISA: variant titrated against mouse NKG2D-Fc binding to plate-coated MICA (competitor), detected with anti-Fc-HRP
T6 construct: also called mouse NKG2D-Fc; not shown: Fc part; not described
T6 sequence (looked up): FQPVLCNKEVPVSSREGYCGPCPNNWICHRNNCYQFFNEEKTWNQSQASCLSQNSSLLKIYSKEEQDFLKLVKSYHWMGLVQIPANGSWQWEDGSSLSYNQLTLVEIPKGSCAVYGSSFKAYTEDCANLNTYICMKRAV

His-avitag-natural NKG2D = molecular target: T7, His-avitag-natural NKG2D (human, biotin on the avitag sequence (BirA)); assay: biolayer interferometry (Octet), biotinylated natural NKG2D ectodomain on the surface, 100 nM fusion protein; run B
T7 construct: also called natural NKG2D ectodomain; wild type NKG2D
T7 chain: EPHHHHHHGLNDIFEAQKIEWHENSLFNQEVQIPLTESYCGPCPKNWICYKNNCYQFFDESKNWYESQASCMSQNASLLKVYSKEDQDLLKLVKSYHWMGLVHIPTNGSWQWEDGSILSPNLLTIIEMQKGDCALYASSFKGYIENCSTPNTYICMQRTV

B1: ULBP4-α3-iFv.2 (designed binder)
chain: EPHSLCFNFTIKSLSRPGQPWCEAQVFLNKNLFLQYNSDNNMVKPLGLLGKKVYATSTWGELTQTLGEVGRDLRMLLCDIKPQIKTSDPSTLQVEMFCQREAERCTGASWQFATNGEKSLLFDAMNMTWTVINHEASKIKETWKKDRGLEKYFRKLSKGDCDHWLREFLGHWEAMPEPTVSPPMVQVTRSEASGGSGDRVTITCRASQDVSTAVAWYQQKPGKAPKLLIYSASFLYSGVPSRFSGSGSGTDFTLTISSLQPEDFATYYCQQSYTTPPTFGQGTKVEIKGGSSRSSSSGGGGSGGGGEVQLVESGGGLVQPGGSLRLSCAASGFTFTSTGISWVRQAPGKGLEWVGRIYPTNGSTNYADSVKGRFTISADTSKNTAYLQMNSLRAEDTAVYYCARTYGIYDLYVDYTEYVMDYWGQGTLVTVSSGGSSRSSSSGGGGSGGGGDIQMTQSPSSLSASGGSGQITVTCRASGFYPWNITLSWRQDGVSLSHDTQQWGDVLPDGQGTYQTWVATRISQGEEQRFTCYMEHSGQHSTHPVPSGKGSHHHHHH
notes: His-tagged, monomeric, insect cells; also called NKG2DL-α3-iFv.2 (ULBP4)
Q: Does B1 bind (human NKG2D-Fc)?
A: binds

B2: MICA25.17 (ligand)
chain: EPHSLRYNLTVLSWDGSVQSGFLTEVHLDGQPFLRCDRQKCRAKPQGQWAEDVLGNKTWDRETRDLTGWGTTLLMTLAHIKDQKEGLHSLQEIRVCEIHEDNSTRSSQHFYYDGELFLSQNLETLEWTMPQSSRAQTLAMNVRNFLKEDAMETDIGYRLMRADCLSELRRYLKSGVVLRRTV
notes: Tested as phage clone (M13 pIII fusion)
Q: Which “EC50 (read off the curve)” value (Y152A NKG2D-Fc) does the source give for B2 here?
A: ~0.005 phage OD

B3: MICA25.18 (ligand)
chain: B2 chain with T72F, L74R, I155R, G156S, Y157G, R158L
notes: as for B2
Q: Which “EC50 (read off the curve)” value (Y152A NKG2D-Fc) does the source give for B3 here?
A: ~0.01 phage OD

B4: ULBP1-α3-iFv.2 (designed binder)
chain: EPHCLCYDFIITPKSRPEPQWCEVQGLVDERPFLHYDCVNHKAKAFASLGKKVNVTKTWEEQTETLRDVVDFLKGQLLDIQVENLIPIEPLTLQARMSCEHEAHGHGRGSWQFLFNGQKFLLFDSNNRKWTALHPGAKKMTEKWEKNRDVTMFFQKISLGDCKMWLEEFLMYWEQMLDPTKPPMVQVTRSEASGGSGDRVTITCRASQDVSTAVAWYQQKPGKAPKLLIYSASFLYSGVPSRFSGSGSGTDFTLTISSLQPEDFATYYCQQSYTTPPTFGQGTKVEIKGGSSRSSSSGGGGSGGGGEVQLVESGGGLVQPGGSLRLSCAASGFTFTSTGISWVRQAPGKGLEWVGRIYPTNGSTNYADSVKGRFTISADTSKNTAYLQMNSLRAEDTAVYYCARTYGIYDLYVDYTEYVMDYWGQGTLVTVSSGGSSRSSSSGGGGSGGGGDIQMTQSPSSLSASGGSGQITVTCRASGFYPWNITLSWRQDGVSLSHDTQQWGDVLPDGQGTYQTWVATRISQGEEQRFTCYMEHSGQHSTHPVPSGKGSHHHHHH
notes: His-tagged, monomeric, insect cells; also called NKG2DL-α3-iFv.2 (ULBP1)
Q: Does B4 bind (human NKG2D-Fc)?
A: binds

B5: MICA-α3-iFv.1 (designed binder)
chain: EPHSLRYNLTVLSWDGSVQSGFLTEVHLDGQPFLRCDRQKCRAKPQGQWAEDVLGNKTWDRETRDLTGNGKDLRMTLAHIKDQKEGLHSLQEIRVCEIHEDNSTRSSQHFYYDGELFLSQNLETKEWTMPQSSRAQTLAMNVRNFLKEDAMKTKTHYHAMHADCLQELRRYLKSGVVLRRTVPPMVQVTRSEASGDRVTITCRASQDVSTAVAWYQQKPGKAPKLLIYSASFLYSGVPSRFSGSGSGTDFTLTISSLQPEDFATYYCQQSYTTPPTFGQGTKVEIKGGSSRSSSSGGGGSGGGGEVQLVESGGGLVQPGGSLRLSCAASGFTFTSTGISWVRQAPGKGLEWVGRIYPTNGSTNYADSVKGRFTISADTSKNTAYLQMNSLRAEDTAVYYCARTYGIYDLYVDYTEYVMDYWGQGTLVTVSSGGSSRSSSSGGGGSGGGGDIQMTQSPSSLSASGQITVTCRASGFYPWNITLSWRQDGVSLSHDTQQWGDVLPDGQGTYQTWVATRISQGEEQRFTCYMEHSGQHSTHPVPSGKGSHHHHHH
notes: His-tagged, monomeric, made in insect cells; also called sMICA-α3-iFv.1
Q: Does B5 bind (human NKG2D-Fc)?
A: binds

Q: And the “EC50 (read off the curve)” value (FGFR3 (plate-coated))?
A: ~1 nM

B6: ULBP3-α3-iFv.2 (designed binder)
chain: EPHSLWYNFTIIHLPRHGQQWCEVQSQVDQKNFLSYDCGSDKVLSMGHLEEQLYATDAWGKQLEMLREVGQRLRLELADTELEDFTPSGPLTLQVRMSCECEADGYIRGSWQFSFDGRKFLLFDSNNRKWTVVHAGARRMKEKWEKDSGLTTFFKMVSMRDCKSWLRDFLMHRKKRLEPTAPPMVQVTRSEASGGSGDRVTITCRASQDVSTAVAWYQQKPGKAPKLLIYSASFLYSGVPSRFSGSGSGTDFTLTISSLQPEDFATYYCQQSYTTPPTFGQGTKVEIKGGSSRSSSSGGGGSGGGGEVQLVESGGGLVQPGGSLRLSCAASGFTFTSTGISWVRQAPGKGLEWVGRIYPTNGSTNYADSVKGRFTISADTSKNTAYLQMNSLRAEDTAVYYCARTYGIYDLYVDYTEYVMDYWGQGTLVTVSSGGSSRSSSSGGGGSGGGGDIQMTQSPSSLSASGGSGQITVTCRASGFYPWNITLSWRQDGVSLSHDTQQWGDVLPDGQGTYQTWVATRISQGEEQRFTCYMEHSGQHSTHPVPSGKGSHHHHHH
notes: His-tagged, monomeric, insect cells; also called NKG2DL-α3-iFv.2 (ULBP3)
Q: Does B6 bind (human NKG2D-Fc)?
A: binds

B7: WED-MICA (ligand)
chain: EPHSLRYNLTVLSWDGSVQSGFLTEVHLDGQPFLRCDRQKCRAKPQGQWAEDVLGNKTWDRETRDLTGWGKDLRMTLAHIKDQKEGLHSLQEIRVCEIHEDNSTRSSQHFYYDGELFLSQNLETKEWTMPQSSRAQTLAMNVRNFLKEDAMETDTHYHAMHADCLQELRRYLKSGVVLRRTVPPMVQVTRSEASGGSGDRVTITCRASQDVSTAVAWYQQKPGKAPKLLIYSASFLYSGVPSRFSGSGSGTDFTLTISSLQPEDFATYYCQQSYTTPPTFGQGTKVEIKGGSSRSSSSGGGGSGGGGEVQLVESGGGLVQPGGSLRLSCAASGFTFTSTGISWVRQAPGKGLEWVGRIYPTNGSTNYADSVKGRFTISADTSKNTAYLQMNSLRAEDTAVYYCARTYGIYDLYVDYTEYVMDYWGQGTLVTVSSGGSSRSSSSGGGGSGGGGDIQMTQSPSSLSASGGSGQITVTCRASGFYPWNITLSWRQDGVSLSHDTQQWGDVLPDGQGTYQTWVATRISQGEEQRFTCYMEHSGQHSTHPVPSGKGSHHHHHH
notes: also called WED-α1-α2 domains; WED soluble MICA protein
Q: B7 was tested. Which “apparent Kd (pooled screen)” value [1] did it give?
A: 5.9 nM

Q: What about the “apparent koff (pooled screen)” value [2] of the same binder?
A: 0.0017 s⁻¹

Q: And the “apparent kon (pooled screen)” value [2]?
A: 290000 M⁻¹ s⁻¹

B8: α1-α2 variant 17 (ligand)
chain: B7 chain with G68L, K125L, H161R
Q: How did the “NK cell-mediated lysis of FGFR3-expressing P815 target cells (calcein release, NKL cells)” value (NKG2D on NKL cells) turn out when B8 was run?
A: ~15 fold more killing than WT at 0.78 nM

Q: And the “IC50 (read off the curve)” value (murine NKG2D-Fc)?
A: ~1 nM

B9: α1-α2 variant 18 (ligand)
chain: B7 chain with S20P, G68L, K125L, H161R
Q: For B9, which “NK cell-mediated lysis of FGFR3-expressing P815 target cells (calcein release, NKL cells)” value (NKG2D on NKL cells) is on record?
A: ~15 fold more killing than WT at 0.78 nM

Q: What about the “IC50 (read off the curve)” value (murine NKG2D-Fc) of the same binder?
A: ~1 nM

B10: α1-α2 variant 16 (ligand)
chain: B7 chain with K125L, H161R
Q: B10 was tested. Which “NK cell-mediated lysis of FGFR3-expressing P815 target cells (calcein release, NKL cells)” value (NKG2D on NKL cells) did it give?
A: ~15 fold more killing than WT at 0.78 nM

B11: MICwed-Fv (designed binder)
chain: B7 chain
notes: His-tagged α1-α2-α3-Fv fusion; also called MICwed-Fv run A; MICwed-Fv run B
Q: Which Kd (His-avitag-natural NKG2D) does the source give for B11 here?
A: 15.5 nM

Q: What about the koff (His-avitag-natural NKG2D) of the same binder?
A: 0.00312 s⁻¹

Q: And the kon (His-avitag-natural NKG2D)?
A: 201000 M⁻¹ s⁻¹
